# From patent US8642284B1, “Methods for identifying agents that alter NAD-dependent deacetylation activity of a SIR2 protein” (Massachusetts Institute of Technology, priority 1999, dated 2014)
# System: histone H2B
# Test: ADP-ribosylation activity of wild type and mutant recombinant mSir2α proteins on histones
# Assay type: biochemical, calf
# Conditions: 10 μg recombinant protein; H2B radioactivity, wild type = 100%
# Description: Site-directed mutagenesis of mSIR2α core domain was performed with the GeneEditor™ system (Promega, Madison, Wis.) according to the procedure provided by the manufacturer. The mutant recombinant proteins were prepared in the same way as described above.
# The typical reaction was performed in 50 or 100 μl of the buffer containing 5 mM Tris-HCl [pH8.0 or 9.0], 4 mM MgCl2, 0.2 mM DTT, 1 μM cold β-NAD^+ (SIGMA®) and 8 μCi nicotinamide adenine dinucleotide 5′[α-^32P]triphosphate (NAD) as a donor of ADP-ribose (˜1000 Ci/mmol, Amersham Pharmacia Biotech). To check the sensitivity to poly- or mono-ADP-ribosylation inhibitors, 3-aminobenzamide (ICN Pharmaceuticals, CA), benzamide, novobiocin and coumermycin A1 (SIGMA®) were added to the reactions prior to adding Sir2 proteins, respectively. The wild type or mutant recombinant proteins (0.5-1 μg for ySir2p and 10 μg of mSir2α) were added with 4 μg of each histone purchased from Roche Molecular Biochemicals (Indianapolis, Ind.). For the peptide experiments, 5-10 μg of unacetylated or acetylated N-terminal tail peptides (amino acids 1-20) of H3 and H4 purchased from Upstate Biotechnology™ (Lake Placid, N.Y.) were used as substrates of the yeast and mouse Sir2 recombinant proteins.
# To analyze histone modification, 25 μl of 100% trichloroacetic acid (TCA) solution was mixed to the reaction mixture and left on ice for 15 min. The protein precipitates were centrifuged at 4° C. and washed with 5 or 20% TCA solution twice. The pellets were dissolved in 15 μl of Leammli's sample buffer and boiled for 1.5 min. The proteins were electrophoresed in a 10-20% gradient SDS-PAGE gel. The gel was stained with COOMASSIE® Brilliant Blue R-250 (GibcoBRL Life Technologies™, Frederick, Md.) to check equal loading of histones, dried, and exposed to KODAK® X-OMAT film.
# Aliquots of recombinant protein (10 μg) of the wild type recombinant mSir2α (WT), the pET control pET, and the mutant proteins (G253A, G255A, S257A, I262A, F265A, R266A, G270A, P285A, T336A, H355A) were incubated with H2B or H3. […] All of the mutations of highly conserved residues dramatically affected the mono-ADP-ribosylation activity of mSir2α (FIG. 6B). The results were similar using H2B or H3.
# The radioactivity of H2B modified by the wild type is assigned to 100% and other data were normalized according to the wild type activity and blots quantitated by Phosphorimaging. The averages and the standard deviations were calculated from two independent experiments. In the core domain of ySir2p, mutations on highly conserved residues also affected the mono-ADP-ribosylation activity. Therefore, the core domain of Sir2 proteins contain the catalytic activity of mono-ADP-ribosylation and the evolutionarily conserved residues in the core domain are essential for this activity.
row,Molecule,mono-ADP-ribosylation activity compared to the wild type activity
1,"F265A: recombinant mSir2α core domain mutant, residue changed to alanine (protein, left off: small tags and cut ends, recombinant mSir2α core domain mutant, residue changed to alanine) MADEVALALQAAGSPSAAAAMEAASQPADEPLRKRPRRDGPGLGRSPGEPSAAVAPAAAGCEAASAAAPAALWREAAGAAASAEREAPATAVAGDGDNGSGLRREPRAADDFDDDEGEEEDEAAAAAAAAAIGYRDNLLLTDGLLTNGFHSCESDDDDRTSHASSSDWTPRPRIGPYTFVQQHLMIGTDPRTILKDLLPETIPPPELDDMTLWQIVINILSEPPKRKKRKDINTIEDAVKLLQECKKIIVLTGAGVSVSCGIPDARSRDGIYARLAVDFPDLPDPQAMFDIEYFRKDPRPFFKFAKEIYPGQFQPSLCHKFIALSDKEGKLLRNYTQNIDTLEQVAGIQRILQCHGSFATASCLICKYKVDCEAVRGDIFNQVVPRCPRCPADEPLAIMKPEIVFFGENLPEQFHRAMKYDKDEVDLLIVIGSSLKVRPVALIPSSIPHEVPQILINREPLPHLHFDVELLGDCDVIINELCHRLGGEYAKLCCNPVKLSEITEKPPRPQKELVHLSELPPTPLHISEDSSSPERTVPQDSSVIATLVDQATNNNVNDLEVSESSCVEEKPQEVQTSRNVENINVENPDFKAVGSSTADKNERTSVAETVRKCWPNRLAKEQISKRLEGNQYLFVPPNRYIFHGAEVYSDSEDDVLSSSSCGSNSDSGTCQSPSLEEPLEDESEIEEFYNGLEDDTERPECAGGSGFGADGGDQEVVNEAIATRQELTDVNYPSDKS",completely abolished the activity
2,"R266A: recombinant mSir2α core domain mutant, residue changed to alanine (protein, left off: small tags and cut ends, recombinant mSir2α core domain mutant, residue changed to alanine) MADEVALALQAAGSPSAAAAMEAASQPADEPLRKRPRRDGPGLGRSPGEPSAAVAPAAAGCEAASAAAPAALWREAAGAAASAEREAPATAVAGDGDNGSGLRREPRAADDFDDDEGEEEDEAAAAAAAAAIGYRDNLLLTDGLLTNGFHSCESDDDDRTSHASSSDWTPRPRIGPYTFVQQHLMIGTDPRTILKDLLPETIPPPELDDMTLWQIVINILSEPPKRKKRKDINTIEDAVKLLQECKKIIVLTGAGVSVSCGIPDFASRDGIYARLAVDFPDLPDPQAMFDIEYFRKDPRPFFKFAKEIYPGQFQPSLCHKFIALSDKEGKLLRNYTQNIDTLEQVAGIQRILQCHGSFATASCLICKYKVDCEAVRGDIFNQVVPRCPRCPADEPLAIMKPEIVFFGENLPEQFHRAMKYDKDEVDLLIVIGSSLKVRPVALIPSSIPHEVPQILINREPLPHLHFDVELLGDCDVIINELCHRLGGEYAKLCCNPVKLSEITEKPPRPQKELVHLSELPPTPLHISEDSSSPERTVPQDSSVIATLVDQATNNNVNDLEVSESSCVEEKPQEVQTSRNVENINVENPDFKAVGSSTADKNERTSVAETVRKCWPNRLAKEQISKRLEGNQYLFVPPNRYIFHGAEVYSDSEDDVLSSSSCGSNSDSGTCQSPSLEEPLEDESEIEEFYNGLEDDTERPECAGGSGFGADGGDQEVVNEAIATRQELTDVNYPSDKS",18%
3,"T336A: recombinant mSir2α core domain mutant, residue changed to alanine (protein, left off: small tags and cut ends, recombinant mSir2α core domain mutant, residue changed to alanine) MADEVALALQAAGSPSAAAAMEAASQPADEPLRKRPRRDGPGLGRSPGEPSAAVAPAAAGCEAASAAAPAALWREAAGAAASAEREAPATAVAGDGDNGSGLRREPRAADDFDDDEGEEEDEAAAAAAAAAIGYRDNLLLTDGLLTNGFHSCESDDDDRTSHASSSDWTPRPRIGPYTFVQQHLMIGTDPRTILKDLLPETIPPPELDDMTLWQIVINILSEPPKRKKRKDINTIEDAVKLLQECKKIIVLTGAGVSVSCGIPDFRSRDGIYARLAVDFPDLPDPQAMFDIEYFRKDPRPFFKFAKEIYPGQFQPSLCHKFIALSDKEGKLLRNYAQNIDTLEQVAGIQRILQCHGSFATASCLICKYKVDCEAVRGDIFNQVVPRCPRCPADEPLAIMKPEIVFFGENLPEQFHRAMKYDKDEVDLLIVIGSSLKVRPVALIPSSIPHEVPQILINREPLPHLHFDVELLGDCDVIINELCHRLGGEYAKLCCNPVKLSEITEKPPRPQKELVHLSELPPTPLHISEDSSSPERTVPQDSSVIATLVDQATNNNVNDLEVSESSCVEEKPQEVQTSRNVENINVENPDFKAVGSSTADKNERTSVAETVRKCWPNRLAKEQISKRLEGNQYLFVPPNRYIFHGAEVYSDSEDDVLSSSSCGSNSDSGTCQSPSLEEPLEDESEIEEFYNGLEDDTERPECAGGSGFGADGGDQEVVNEAIATRQELTDVNYPSDKS",completely abolished the activity
4,"H355A: recombinant mSir2α core domain mutant, residue changed to alanine (protein, left off: small tags and cut ends, recombinant mSir2α core domain mutant, residue changed to alanine) MADEVALALQAAGSPSAAAAMEAASQPADEPLRKRPRRDGPGLGRSPGEPSAAVAPAAAGCEAASAAAPAALWREAAGAAASAEREAPATAVAGDGDNGSGLRREPRAADDFDDDEGEEEDEAAAAAAAAAIGYRDNLLLTDGLLTNGFHSCESDDDDRTSHASSSDWTPRPRIGPYTFVQQHLMIGTDPRTILKDLLPETIPPPELDDMTLWQIVINILSEPPKRKKRKDINTIEDAVKLLQECKKIIVLTGAGVSVSCGIPDFRSRDGIYARLAVDFPDLPDPQAMFDIEYFRKDPRPFFKFAKEIYPGQFQPSLCHKFIALSDKEGKLLRNYTQNIDTLEQVAGIQRILQCAGSFATASCLICKYKVDCEAVRGDIFNQVVPRCPRCPADEPLAIMKPEIVFFGENLPEQFHRAMKYDKDEVDLLIVIGSSLKVRPVALIPSSIPHEVPQILINREPLPHLHFDVELLGDCDVIINELCHRLGGEYAKLCCNPVKLSEITEKPPRPQKELVHLSELPPTPLHISEDSSSPERTVPQDSSVIATLVDQATNNNVNDLEVSESSCVEEKPQEVQTSRNVENINVENPDFKAVGSSTADKNERTSVAETVRKCWPNRLAKEQISKRLEGNQYLFVPPNRYIFHGAEVYSDSEDDVLSSSSCGSNSDSGTCQSPSLEEPLEDESEIEEFYNGLEDDTERPECAGGSGFGADGGDQEVVNEAIATRQELTDVNYPSDKS",completely abolished the activity
5,"G270A: recombinant mSir2α core domain mutant, residue changed to alanine (protein, left off: small tags and cut ends, recombinant mSir2α core domain mutant, residue changed to alanine) MADEVALALQAAGSPSAAAAMEAASQPADEPLRKRPRRDGPGLGRSPGEPSAAVAPAAAGCEAASAAAPAALWREAAGAAASAEREAPATAVAGDGDNGSGLRREPRAADDFDDDEGEEEDEAAAAAAAAAIGYRDNLLLTDGLLTNGFHSCESDDDDRTSHASSSDWTPRPRIGPYTFVQQHLMIGTDPRTILKDLLPETIPPPELDDMTLWQIVINILSEPPKRKKRKDINTIEDAVKLLQECKKIIVLTGAGVSVSCGIPDFRSRDAIYARLAVDFPDLPDPQAMFDIEYFRKDPRPFFKFAKEIYPGQFQPSLCHKFIALSDKEGKLLRNYTQNIDTLEQVAGIQRILQCHGSFATASCLICKYKVDCEAVRGDIFNQVVPRCPRCPADEPLAIMKPEIVFFGENLPEQFHRAMKYDKDEVDLLIVIGSSLKVRPVALIPSSIPHEVPQILINREPLPHLHFDVELLGDCDVIINELCHRLGGEYAKLCCNPVKLSEITEKPPRPQKELVHLSELPPTPLHISEDSSSPERTVPQDSSVIATLVDQATNNNVNDLEVSESSCVEEKPQEVQTSRNVENINVENPDFKAVGSSTADKNERTSVAETVRKCWPNRLAKEQISKRLEGNQYLFVPPNRYIFHGAEVYSDSEDDVLSSSSCGSNSDSGTCQSPSLEEPLEDESEIEEFYNGLEDDTERPECAGGSGFGADGGDQEVVNEAIATRQELTDVNYPSDKS",completely abolished the activity
